Starred links: 1 amine or outer side, 2 acyl side, 3 side chain; linkers in the order of their positions; H or OH if unused. Non-standard residues stand in square brackets, D forms with d. Groups on a side chain read outwards from the residue. No end group written: not given here. *: point of attachment. C20 diacid = O=C(O)CCCCCCCCCCCCCCCCCCC(=O)*; C18 diacid = O=C(O)CCCCCCCCCCCCCCCCC(=O)*; αMePhe(2-F) = C[C@](N)(Cc1ccccc1F)C(=O)O; γGlu = O=C(O)[C@H](CCC(=O)[*:2])N[*:1]; αMeL = CC(C)C[C@](C)(N)C(=O)O; AEEA = NCCOCCOCC(=O)O; Aib = CC(C)(N)C(=O)O
T1: human glucose-dependent insulinotropic peptide receptor (human, UniProt P48546 22-466)
T1 sequence (looked up): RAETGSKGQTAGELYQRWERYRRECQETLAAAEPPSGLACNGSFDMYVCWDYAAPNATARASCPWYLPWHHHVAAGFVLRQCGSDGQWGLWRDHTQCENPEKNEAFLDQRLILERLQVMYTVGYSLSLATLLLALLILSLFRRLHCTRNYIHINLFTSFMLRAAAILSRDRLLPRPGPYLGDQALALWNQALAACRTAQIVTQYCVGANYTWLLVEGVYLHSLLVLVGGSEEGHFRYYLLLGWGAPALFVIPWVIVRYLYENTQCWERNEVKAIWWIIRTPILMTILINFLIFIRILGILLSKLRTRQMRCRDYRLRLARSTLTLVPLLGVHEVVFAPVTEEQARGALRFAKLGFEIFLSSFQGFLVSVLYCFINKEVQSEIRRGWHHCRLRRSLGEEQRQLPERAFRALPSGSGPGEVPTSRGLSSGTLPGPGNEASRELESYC

B1: Example 35 (peptide)
peptide: Y[Aib]EGT[αMeL]ISDYSIALDKK([AEEA-AEEA-γGlu-C20 diacid])HQ[Aib]EFVNYLLATGPSSGAPPPS-NH2
modifications: N-terminus assumed
SMILES: CC[C@H](C)[C@H](NC(=O)[C@H](CO)NC(=O)[C@H](Cc1ccc(O)cc1)NC(=O)[C@H](CC(=O)O)NC(=O)[C@H](CO)NC(=O)[C@@H](NC(=O)[C@](C)(CC(C)C)NC(=O)[C@@H](NC(=O)CNC(=O)[C@H](CCC(=O)O)NC(=O)C(C)(C)NC(=O)[C@@H](N)Cc1ccc(O)cc1)[C@@H](C)O)[C@@H](C)CC)C(=O)N[C@@H](C)C(=O)N[C@@H](CC(C)C)C(=O)N[C@@H](CC(=O)O)C(=O)N[C@@H](CCCCN)C(=O)N[C@@H](CCCCNC(=O)COCCOCCNC(=O)COCCOCCNC(=O)CC[C@H](NC(=O)CCCCCCCCCCCCCCCCCCC(=O)O)C(=O)O)C(=O)N[C@@H](Cc1c[nH]cn1)C(=O)N[C@@H](CCC(N)=O)C(=O)NC(C)(C)C(=O)N[C@@H](CCC(=O)O)C(=O)N[C@@H](Cc1ccccc1)C(=O)N[C@H](C(=O)N[C@@H](CC(N)=O)C(=O)N[C@@H](Cc1ccc(O)cc1)C(=O)N[C@@H](CC(C)C)C(=O)N[C@@H](CC(C)C)C(=O)N[C@@H](C)C(=O)N[C@H](C(=O)NCC(=O)N1CCC[C@H]1C(=O)N[C@@H](CO)C(=O)N[C@@H](CO)C(=O)NCC(=O)N[C@@H](C)C(=O)N1CCC[C@H]1C(=O)N1CCC[C@H]1C(=O)N1CCC[C@H]1C(=O)N[C@@H](CO)C(N)=O)[C@@H](C)O)C(C)C
B2: Example 33 (peptide)
peptide: Ac-[dY]AEGT[αMePhe(2-F)]ISDYSIALDKK([AEEA-AEEA-γGlu-C20 diacid])HQ[Aib]EFVNYLLEGGPSSGAPPPS-NH2
SMILES: CC[C@H](C)[C@H](NC(=O)[C@H](CO)NC(=O)[C@H](Cc1ccc(O)cc1)NC(=O)[C@H](CC(=O)O)NC(=O)[C@H](CO)NC(=O)[C@@H](NC(=O)[C@](C)(Cc1ccccc1F)NC(=O)[C@@H](NC(=O)CNC(=O)[C@H](CCC(=O)O)NC(=O)[C@H](C)NC(=O)[C@@H](Cc1ccc(O)cc1)NC(C)=O)[C@@H](C)O)[C@@H](C)CC)C(=O)N[C@@H](C)C(=O)N[C@@H](CC(C)C)C(=O)N[C@@H](CC(=O)O)C(=O)N[C@@H](CCCCN)C(=O)N[C@@H](CCCCNC(=O)COCCOCCNC(=O)COCCOCCNC(=O)CC[C@H](NC(=O)CCCCCCCCCCCCCCCCCCC(=O)O)C(=O)O)C(=O)N[C@@H](Cc1c[nH]cn1)C(=O)N[C@@H](CCC(N)=O)C(=O)NC(C)(C)C(=O)N[C@@H](CCC(=O)O)C(=O)N[C@@H](Cc1ccccc1)C(=O)N[C@H](C(=O)N[C@@H](CC(N)=O)C(=O)N[C@@H](Cc1ccc(O)cc1)C(=O)N[C@@H](CC(C)C)C(=O)N[C@@H](CC(C)C)C(=O)N[C@@H](CCC(=O)O)C(=O)NCC(=O)NCC(=O)N1CCC[C@H]1C(=O)N[C@@H](CO)C(=O)N[C@@H](CO)C(=O)NCC(=O)N[C@@H](C)C(=O)N1CCC[C@H]1C(=O)N1CCC[C@H]1C(=O)N1CCC[C@H]1C(=O)N[C@@H](CO)C(N)=O)C(C)C
B3: Example 32 (peptide)
peptide: Y[dA]EGTLISDYSILLDKK([AEEA-AEEA-γGlu-C18 diacid])AQ[Aib]DFVNWLLAQGPSSGAPPPS-NH2
modifications: N-terminus assumed
SMILES: CC[C@H](C)[C@H](NC(=O)[C@H](CO)NC(=O)[C@H](Cc1ccc(O)cc1)NC(=O)[C@H](CC(=O)O)NC(=O)[C@H](CO)NC(=O)[C@@H](NC(=O)[C@H](CC(C)C)NC(=O)[C@@H](NC(=O)CNC(=O)[C@H](CCC(=O)O)NC(=O)[C@@H](C)NC(=O)[C@@H](N)Cc1ccc(O)cc1)[C@@H](C)O)[C@@H](C)CC)C(=O)N[C@@H](CC(C)C)C(=O)N[C@@H](CC(C)C)C(=O)N[C@@H](CC(=O)O)C(=O)N[C@@H](CCCCN)C(=O)N[C@@H](CCCCNC(=O)COCCOCCNC(=O)COCCOCCNC(=O)CC[C@H](NC(=O)CCCCCCCCCCCCCCCCC(=O)O)C(=O)O)C(=O)N[C@@H](C)C(=O)N[C@@H](CCC(N)=O)C(=O)NC(C)(C)C(=O)N[C@@H](CC(=O)O)C(=O)N[C@@H](Cc1ccccc1)C(=O)N[C@H](C(=O)N[C@@H](CC(N)=O)C(=O)N[C@@H](Cc1c[nH]c2ccccc12)C(=O)N[C@@H](CC(C)C)C(=O)N[C@@H](CC(C)C)C(=O)N[C@@H](C)C(=O)N[C@@H](CCC(N)=O)C(=O)NCC(=O)N1CCC[C@H]1C(=O)N[C@@H](CO)C(=O)N[C@@H](CO)C(=O)NCC(=O)N[C@@H](C)C(=O)N1CCC[C@H]1C(=O)N1CCC[C@H]1C(=O)N1CCC[C@H]1C(=O)N[C@@H](CO)C(N)=O)C(C)C
B4: Example 36 (peptide)
peptide: Y[Aib]EGT[αMePhe(2-F)]ISDYSIALDKK([AEEA-AEEA-γGlu-C20 diacid])HQ[Aib]DFVEYLLETGPSSGAPPPS-NH2
modifications: N-terminus assumed
SMILES: CC[C@H](C)[C@H](NC(=O)[C@H](CO)NC(=O)[C@H](Cc1ccc(O)cc1)NC(=O)[C@H](CC(=O)O)NC(=O)[C@H](CO)NC(=O)[C@@H](NC(=O)[C@](C)(Cc1ccccc1F)NC(=O)[C@@H](NC(=O)CNC(=O)[C@H](CCC(=O)O)NC(=O)C(C)(C)NC(=O)[C@@H](N)Cc1ccc(O)cc1)[C@@H](C)O)[C@@H](C)CC)C(=O)N[C@@H](C)C(=O)N[C@@H](CC(C)C)C(=O)N[C@@H](CC(=O)O)C(=O)N[C@@H](CCCCN)C(=O)N[C@@H](CCCCNC(=O)COCCOCCNC(=O)COCCOCCNC(=O)CC[C@H](NC(=O)CCCCCCCCCCCCCCCCCCC(=O)O)C(=O)O)C(=O)N[C@@H](Cc1c[nH]cn1)C(=O)N[C@@H](CCC(N)=O)C(=O)NC(C)(C)C(=O)N[C@@H](CC(=O)O)C(=O)N[C@@H](Cc1ccccc1)C(=O)N[C@H](C(=O)N[C@@H](CCC(=O)O)C(=O)N[C@@H](Cc1ccc(O)cc1)C(=O)N[C@@H](CC(C)C)C(=O)N[C@@H](CC(C)C)C(=O)N[C@@H](CCC(=O)O)C(=O)N[C@H](C(=O)NCC(=O)N1CCC[C@H]1C(=O)N[C@@H](CO)C(=O)N[C@@H](CO)C(=O)NCC(=O)N[C@@H](C)C(=O)N1CCC[C@H]1C(=O)N1CCC[C@H]1C(=O)N1CCC[C@H]1C(=O)N[C@@H](CO)C(N)=O)[C@@H](C)O)C(C)C
B5: Example 37 (peptide)
peptide: Y[Aib]EGT[αMePhe(2-F)]ISDYSIALDKK([AEEA-AEEA-γGlu-C20 diacid])HQ[Aib]DFVEYLLEGGPSSGAPPPS-NH2
modifications: N-terminus assumed
SMILES: CC[C@H](C)[C@H](NC(=O)[C@H](CO)NC(=O)[C@H](Cc1ccc(O)cc1)NC(=O)[C@H](CC(=O)O)NC(=O)[C@H](CO)NC(=O)[C@@H](NC(=O)[C@](C)(Cc1ccccc1F)NC(=O)[C@@H](NC(=O)CNC(=O)[C@H](CCC(=O)O)NC(=O)C(C)(C)NC(=O)[C@@H](N)Cc1ccc(O)cc1)[C@@H](C)O)[C@@H](C)CC)C(=O)N[C@@H](C)C(=O)N[C@@H](CC(C)C)C(=O)N[C@@H](CC(=O)O)C(=O)N[C@@H](CCCCN)C(=O)N[C@@H](CCCCNC(=O)COCCOCCNC(=O)COCCOCCNC(=O)CC[C@H](NC(=O)CCCCCCCCCCCCCCCCCCC(=O)O)C(=O)O)C(=O)N[C@@H](Cc1c[nH]cn1)C(=O)N[C@@H](CCC(N)=O)C(=O)NC(C)(C)C(=O)N[C@@H](CC(=O)O)C(=O)N[C@@H](Cc1ccccc1)C(=O)N[C@H](C(=O)N[C@@H](CCC(=O)O)C(=O)N[C@@H](Cc1ccc(O)cc1)C(=O)N[C@@H](CC(C)C)C(=O)N[C@@H](CC(C)C)C(=O)N[C@@H](CCC(=O)O)C(=O)NCC(=O)NCC(=O)N1CCC[C@H]1C(=O)N[C@@H](CO)C(=O)N[C@@H](CO)C(=O)NCC(=O)N[C@@H](C)C(=O)N1CCC[C@H]1C(=O)N1CCC[C@H]1C(=O)N1CCC[C@H]1C(=O)N[C@@H](CO)C(N)=O)C(C)C
B6: Example 34 (peptide)
peptide: Y[Aib]EGT[αMePhe(2-F)]ISDYSIALDKK([AEEA-AEEA-γGlu-C20 diacid])HQ[Aib]EFVNYLLATGPSSGAPPPS-NH2
modifications: N-terminus assumed
SMILES: CC[C@H](C)[C@H](NC(=O)[C@H](CO)NC(=O)[C@H](Cc1ccc(O)cc1)NC(=O)[C@H](CC(=O)O)NC(=O)[C@H](CO)NC(=O)[C@@H](NC(=O)[C@](C)(Cc1ccccc1F)NC(=O)[C@@H](NC(=O)CNC(=O)[C@H](CCC(=O)O)NC(=O)C(C)(C)NC(=O)[C@@H](N)Cc1ccc(O)cc1)[C@@H](C)O)[C@@H](C)CC)C(=O)N[C@@H](C)C(=O)N[C@@H](CC(C)C)C(=O)N[C@@H](CC(=O)O)C(=O)N[C@@H](CCCCN)C(=O)N[C@@H](CCCCNC(=O)COCCOCCNC(=O)COCCOCCNC(=O)CC[C@H](NC(=O)CCCCCCCCCCCCCCCCCCC(=O)O)C(=O)O)C(=O)N[C@@H](Cc1c[nH]cn1)C(=O)N[C@@H](CCC(N)=O)C(=O)NC(C)(C)C(=O)N[C@@H](CCC(=O)O)C(=O)N[C@@H](Cc1ccccc1)C(=O)N[C@H](C(=O)N[C@@H](CC(N)=O)C(=O)N[C@@H](Cc1ccc(O)cc1)C(=O)N[C@@H](CC(C)C)C(=O)N[C@@H](CC(C)C)C(=O)N[C@@H](C)C(=O)N[C@H](C(=O)NCC(=O)N1CCC[C@H]1C(=O)N[C@@H](CO)C(=O)N[C@@H](CO)C(=O)NCC(=O)N[C@@H](C)C(=O)N1CCC[C@H]1C(=O)N1CCC[C@H]1C(=O)N1CCC[C@H]1C(=O)N[C@@H](CO)C(N)=O)[C@@H](C)O)C(C)C

Tests used:
Test in all cases: cell-based or functional assay
human glucagon receptor = human glucagon receptor (human, UniProt P47871 26-477)
[1] = target: T1, human glucose-dependent insulinotropic …
human GLP-1 receptor = human GLP-1 receptor (human, UniProt P43220 24-463)

Chain of human glucagon receptor (P47871 26-477): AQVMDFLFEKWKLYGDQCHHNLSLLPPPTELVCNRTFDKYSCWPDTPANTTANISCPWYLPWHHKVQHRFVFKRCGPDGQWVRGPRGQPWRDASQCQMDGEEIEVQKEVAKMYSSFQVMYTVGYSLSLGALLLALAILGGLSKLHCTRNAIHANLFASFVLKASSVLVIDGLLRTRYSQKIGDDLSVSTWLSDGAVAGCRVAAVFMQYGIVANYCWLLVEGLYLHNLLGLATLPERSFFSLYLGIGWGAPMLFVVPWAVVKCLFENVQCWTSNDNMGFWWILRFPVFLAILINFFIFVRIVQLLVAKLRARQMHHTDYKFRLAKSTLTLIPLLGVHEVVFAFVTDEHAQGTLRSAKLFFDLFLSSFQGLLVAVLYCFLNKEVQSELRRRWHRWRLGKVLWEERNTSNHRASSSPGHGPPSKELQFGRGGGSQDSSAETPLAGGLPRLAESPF

Binder	hGcgR cAMP Rel EC50 (human glucagon receptor) [nM]	hGIPR cAMP Rel EC50 [1] [nM]	hGLP1R cAMP Rel EC50 (human GLP-1 receptor) [nM]
B1	> 5000	0.0125	> 5000
B2	> 5000	0.0551	> 5000
B3	> 5000	0.00469	> 5000
B4	> 5000	0.0543	1080
B5	> 5000	0.036	61.1
B6	913	0.0177	462

— patent US20210032299A1 (Eli Lilly, published 2021)
